# Assay results reported in patent US20160137728A1.
# T1: Thermus thermophilus wild type SlyD polypeptide (Thermus thermophilus)
# T1 sequence: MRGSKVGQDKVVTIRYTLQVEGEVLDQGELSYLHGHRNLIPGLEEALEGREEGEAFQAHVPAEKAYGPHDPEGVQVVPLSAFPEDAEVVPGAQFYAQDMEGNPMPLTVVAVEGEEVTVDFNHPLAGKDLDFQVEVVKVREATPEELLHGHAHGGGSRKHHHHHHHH
# B1: MAb<h-IGF-1>M-11.09.15 (antibody, V domains shown)
# VH: QVQLQQSGAELVRPGSSVKISCKASGYAFSNLWMNWVKQRPGQGLEWIGQIYPGDGDTNYYGDFKGKATLTADSSSSTAYMQLSRLTSEDSAVYFCARIGYYGMDYWGQGTSVTVSS
# VL: DVVLTQTPLSLPVNIGDEASISCKSTKSLLSSDGLTYLDWYLQKPGQSPQVLIYLVSNRFSGVPDRFSGSGSGTDFTLKISRVEAEDLGVYYCFQSNYLPTFGAGTKLELK
# Target: T1, Thermus thermophilus wild type SlyD polypeptide (Thermus thermophilus)
# Experiment: ELISA, clone culture supernatant
binder,measurement,value
B1,reactivity [mE],32 mE
